Source: US20250122242A1 (WISCONSIN ALUMNI RESEARCH FOUNDATION, published 2025)

T1: hIAPP-T7n (human islet amyloid polypeptide fused through a GGSGG linker to the N-terminal half of split T7 … (human))
T1 chain: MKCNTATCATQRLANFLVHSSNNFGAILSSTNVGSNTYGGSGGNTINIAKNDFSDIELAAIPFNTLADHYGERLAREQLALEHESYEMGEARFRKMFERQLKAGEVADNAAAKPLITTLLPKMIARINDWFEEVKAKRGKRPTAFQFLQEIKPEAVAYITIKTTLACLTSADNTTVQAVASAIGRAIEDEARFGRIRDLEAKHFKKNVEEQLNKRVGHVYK


How the values were obtained:
[1] = biological target: T1, hIAPP-T7n (human islet amyloid …); assay: cell-based or functional assay
[2] = biological target: Aβ42-T7n (amyloid-β42 fused through a GGSGG linker to the N-terminal half of split T7 RNA polymerase); assay: cell-based or functional assay

| Binder | propagation of clonal SP on hIAPP against Aβ42 selection cells [1] [fold] | also measured |
| --- | --- | --- |
| cyclo(CRCVFSG) (not fully specified; printed as cyclo-CRCVFSG; cysteine pairing not given here) [cyclo-CRCVFSG (SEQ ID NO:69) encoded on selection phage as SICLOPPS precursor] | ~10 |  |
| cyclo(CKVWQLL) (not fully specified; printed as cyclo-CKVWQLL) [cyclo-CKVWQLL (SEQ ID NO:30) encoded on parent selection phage as SICLOPPS precursor] |  | fold phage propagation on E. coli encoding the Aβ42-T7n selection, against SP carrying scrambled control cyclo-CVQWLKL [2]: ~500 fold |
| cyclo(CKVWQLL) (not fully specified; printed as cyclo-CKVWQLL) |  | fold phage propagation on E. coli encoding the Aβ42-T7n selection, against scrambled control [2]: ~300 fold |
| cyclo(CDLGVFR) (not fully specified; printed as cyclo-CDLGVFR) [cyclo-CDLGVFR (SEQ ID NO:68) encoded on selection phage as SICLOPPS precursor] | ~1000 |  |
